Patent US20140271648A1 (Janssen / Centocor, published 2014)

T1: human IFNαF (human, UniProt P01568 24-189)
T1 chain: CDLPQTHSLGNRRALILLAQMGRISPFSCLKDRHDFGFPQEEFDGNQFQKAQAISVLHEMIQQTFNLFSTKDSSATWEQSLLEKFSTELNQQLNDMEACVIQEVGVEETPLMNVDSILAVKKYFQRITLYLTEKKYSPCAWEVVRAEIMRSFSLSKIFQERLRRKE

T2: human IFNαD (human, UniProt A0A087WWS6 25-190)
T2 construct: also called Alpha D (alpha 1); IFNα1
T2 chain: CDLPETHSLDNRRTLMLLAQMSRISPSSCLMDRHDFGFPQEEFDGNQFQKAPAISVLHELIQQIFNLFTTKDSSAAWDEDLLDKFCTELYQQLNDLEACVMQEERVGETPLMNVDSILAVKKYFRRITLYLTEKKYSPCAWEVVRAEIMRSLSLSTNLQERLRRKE


How the values were obtained:
human IFNαC [1] = molecular target: T3, human IFNαC (human, UniProt P01566 24-189); assay: cell-based or functional assay
T3 sequence (P01566 24-189): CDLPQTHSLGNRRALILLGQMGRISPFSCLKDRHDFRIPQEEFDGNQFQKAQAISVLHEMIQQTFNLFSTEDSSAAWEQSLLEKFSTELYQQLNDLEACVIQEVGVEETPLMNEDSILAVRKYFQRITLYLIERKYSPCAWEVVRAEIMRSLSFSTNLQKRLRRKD

human IFNαF [2] = molecular target: T1, human IFNαF; assay: cell-based or functional assay
human IFNαG [3] = molecular target: T4, human IFNαG (human, UniProt P01569 24-189); assay: cell-based or functional assay
T4 sequence (P01569 24-189): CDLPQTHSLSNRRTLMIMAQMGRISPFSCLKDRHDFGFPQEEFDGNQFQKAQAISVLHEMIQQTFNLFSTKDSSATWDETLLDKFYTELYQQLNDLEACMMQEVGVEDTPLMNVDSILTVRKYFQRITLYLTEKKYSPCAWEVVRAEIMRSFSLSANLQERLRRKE

human IFNαH2 [4] = molecular target: T5, human IFNαH2 (human, UniProt P01570 24-189); assay: cell-based or functional assay
T5 sequence (P01570 24-189): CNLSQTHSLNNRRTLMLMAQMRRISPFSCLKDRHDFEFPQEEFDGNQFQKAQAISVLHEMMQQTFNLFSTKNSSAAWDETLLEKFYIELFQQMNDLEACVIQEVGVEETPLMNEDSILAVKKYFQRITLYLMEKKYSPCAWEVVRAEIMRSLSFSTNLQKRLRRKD

human IFNαJ1 [5] = molecular target: T6, human IFNαJ1 (human, UniProt P01567 24-189); assay: cell-based or functional assay
T6 sequence (P01567 24-189): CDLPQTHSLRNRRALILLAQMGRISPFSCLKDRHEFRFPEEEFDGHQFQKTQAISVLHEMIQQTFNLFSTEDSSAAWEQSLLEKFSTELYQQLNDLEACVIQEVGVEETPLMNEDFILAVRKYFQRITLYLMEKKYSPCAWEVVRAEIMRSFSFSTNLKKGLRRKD

human IFNαK [6] = molecular target: T7, human IFNαK (human, UniProt P05013 24-189); assay: cell-based or functional assay
T7 sequence (P05013 24-189): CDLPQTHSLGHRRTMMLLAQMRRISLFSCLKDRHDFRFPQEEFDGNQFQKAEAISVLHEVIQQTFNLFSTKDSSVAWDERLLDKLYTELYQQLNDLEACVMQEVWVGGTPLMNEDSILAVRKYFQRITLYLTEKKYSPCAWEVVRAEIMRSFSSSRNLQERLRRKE

human IFNαWA [7] = molecular target: T8, human IFNαWA (human, UniProt P05015 24-189); assay: cell-based or functional assay
human IFNω [8] = molecular target: T9, human IFNω (human, UniProt P05000 24-195); assay: cell-based or functional assay
T9 sequence (P05000 24-195 limits assumed): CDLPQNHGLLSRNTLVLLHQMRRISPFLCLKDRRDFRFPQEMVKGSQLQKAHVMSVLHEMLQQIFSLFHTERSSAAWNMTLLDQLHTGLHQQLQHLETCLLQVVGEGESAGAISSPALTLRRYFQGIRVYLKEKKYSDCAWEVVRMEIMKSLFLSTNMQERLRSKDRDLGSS

human IFNαC [9] = molecular target: T3, human IFNαC; assay: SPR (ProteOn); mAb captured on anti-human Fc, IFN as analyte
Experimental: (§1) Binding affinities of the antibodies were performed using SPR technology with ProteOn (Bio-Rad Hercules, Calif.). Goat anti-human Fc antibodies (manufacture) were amine-coupled to GLC chips (Bio-Rad Hercules, Calif.) using standard NHS/EDC chemistry as manufacture recommended. The anti-IFN mAbs were then loaded on the antibody coupled chip for 2 minutes at the flow rate of 30 μl/min. […] The chips were generated with 100 mM phosphoric acid in each direction between running different antigens. Data analysis was performed using ProteOn manager (Bio-Rad Hercules, Calif.). The sensorgrams were grouped by mAbs. After applying alignment and reference correction (using either interspot or blank channel referencing), the SPR data were fit globally to Langmuir model for kinetic rate constants (KD=koff/kₒₙ, where KD=equilibrium dissociation constant, kₒₙ=association rate constant, and koff=dissociation rate constant).

human IFNαD = molecular target: T2, human IFNαD; assay: as above
Experimental: as §1

human IFNαF [10] = molecular target: T1, human IFNαF; assay: as above
Experimental: as §1

human IFNαG [11] = molecular target: T4, human IFNαG; assay: as above
Experimental: as §1

human IFNαH2 [12] = molecular target: T5, human IFNαH2; assay: as above
Experimental: as §1

human IFNαJ1 [13] = molecular target: T6, human IFNαJ1; assay: as above
Experimental: as §1

human IFNαK [14] = molecular target: T7, human IFNαK; assay: as above
Experimental: as §1

human IFNαWA [15] = molecular target: T8, human IFNαWA; assay: as above
Experimental: as §1

human IFNω [16] = molecular target: T9, human IFNω; assay: as above
Experimental: as §1

human IFNω T80E variant = molecular target: T10, human IFNω T80E variant (human, UniProt P05000 24-195); assay: complex formed, purified by size exclusion and co-crystallized
T10 construct: Expressed in HEK293F cells; used for the crystal structures; In the Fab357 crystal only residues R22-P39 and L118-L154 were seen (proteolytic cleavage during crystallization); also called IFN-omega (T80E)
T10 sequence (P05000 24-195 T103E limits assumed): as the sequence (P05000 24-195 limits assumed) above, with T80E counted along it

human IFNβ = molecular target: T11, human IFNβ (human, UniProt P01574 22-187); assay: SPR (ProteOn); mAb captured on anti-human Fc, IFN as analyte
T11 construct: also called interferon-β
T11 sequence (P01574 22-187 limits assumed): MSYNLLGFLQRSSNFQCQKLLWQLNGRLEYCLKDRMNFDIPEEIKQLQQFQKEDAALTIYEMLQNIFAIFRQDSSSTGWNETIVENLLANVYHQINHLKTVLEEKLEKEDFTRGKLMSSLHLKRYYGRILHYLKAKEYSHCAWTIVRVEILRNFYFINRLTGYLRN
Experimental: as §1

Binder	IC50, ISRE reporter gene assay (human IFNαC [1]) [nM]	IC50, ISRE reporter gene assay (human IFNαF [2]) [nM]	IC50, ISRE reporter gene assay (human IFNαG [3]) [nM]	IC50, ISRE reporter gene assay (human IFNαH2 [4]) [nM]	IC50, ISRE reporter gene assay (human IFNαJ1 [5]) [nM]	IC50, ISRE reporter gene assay (human IFNω [8]) [nM]	Kd (human IFNαC [9]) [nM]	binding result (human IFNαD)	Kd (human IFNαF [10]) [nM]	Kd (human IFNαG [11]) [nM]	Kd (human IFNαH2 [12]) [nM]	Kd (human IFNαJ1 [13]) [nM]	Kd (human IFNαWA [15]) [nM]	Kd (human IFNω [16]) [nM]	binding result (human IFNω T80E variant)	binding result (human IFNβ)	other results
IFWM43 (antibody, V domains shown, Fab from a pIX phage display library, converted to human IgG1 mAb; also called anti IFNα/ω mAb M43) VH: QVQLVQSGAEVKKPGSSVKVSCKASGGTFSSYAISWVRQAPGQGLEWMGGIIPIFGTANYAQKFQGRVTITADESTSTAYMELSSLRSEDTAVYYCARDSWGSYYAALDYWGQGTLVTVSS VL: not shown	14.9	3.7	5.3	51	1	18.5	0.4	no binding (tested: antigen up to 100 nM)	0.9	0.6	0.6	0.4	0.6	0.3	–	–	IC50, ISRE reporter gene assay (human IFNαK [6]): 10.4 nM; IC50, ISRE reporter gene assay (human IFNαWA [7]): 9.2 nM; Kd (human IFNαK [14]): 0.3 nM
FabM43 (Fab, V domains shown, His-tagged Fab, IgG1/κ isotype, expressed in HEK293F cells; also called Fab of IFWM43; His-tagged FabM43) VH: QVQLVQSGAEVKKPGSSVKVSCKASGGTFSSYAISWVRQAPGQGLEWMGGIIPIFGTANYAQKFQGRVTITADESTSTAYMELSSLRSEDTAVYYCARDSWGSYYAALDYWGQGTLVTVSS VL: not shown	–	–	–	–	–	–	–	–	–	–	–	–	–	–	binds	–	–
IFWM88 (antibody, V domains shown, Fab from a pIX phage display library, converted to human IgG1 mAb) VH: QVQLVQSGAEVKKPGSSVKVSCKASGGTFSSYAISWVRQAPGQGLEWMGGIIPIFGTANYAQKFQGRVTITADESTSTAYMELSSLRSEDTAVYYCARHLEYAFPDKFDYWGQGTLVTVSS VL: not shown	136	24.6	23.4	–	21.9	–	3.2	no binding (tested: antigen up to 100 nM)	1	0.8	5.5	4.5	97.3	53	–	no binding (tested: antigen up to 100 nM)	–
C2595 (antibody, V domains shown) VH: EVQLQQSGGDLVKPGGSLKLSCAASGFTFSSYGMSWVRQTPDKRLDWVSIITSGGSYTYYPDSVKGRFTISRDNAKNTLYLQMSSLKSEDTAMYYCARHAEGGGNYDYAMDYWGQGTSVTVSS VL: DIVMTQAAFSNPVTLGTSASISCRSSKSLLHSNGITYLYWYLQKPGQSPQLLIYQMSNLASGVPDRFSSSGSGIDFTLRISRVEAEDVGAYYCAQNLELPFTFGSGTKLEIK	1.5	2.6	2.6	20.3	1.4	0.9	–	–	–	–	–	–	–	–	–	–	–
M3239 (antibody, human IgG1, V domains shown) VH: EVQLQQSGGDLVKPGGSLKLSCAASGFTFSSYGMSWVRQTPDKRLDWVSIITSGGSYTYYPDSVKGRFTISRDNAKNTLYLQMSSLKSEDTAMYYCARHAEGGGNYDYAMDYWGQGTSVTVSS VL: DIVMTQAAFSNPVTLGTSASISCRSSKSLLHSNGITYLYWYLQKPGQSPQLLIYQMSNLASGVPDRFSSSGSGIDFTLRISRVEAEDVGAYYCAQNLELPFTFGSGTKLEIK	–	–	–	–	–	–	1.3	no binding (tested: antigen up to 100 nM)	15.1	10.3	61.6	4.3	–	4.5	–	no binding (tested: antigen up to 100 nM)	binding result (human IFNαK [14]): no binding (tested: antigen up to 100 nM); binding result (human IFNαWA [15]): no binding (tested: antigen up to 100 nM)
Fab357 (Fab, V domains shown, also called Fab of C2595) VH: EVQLQQSGGDLVKPGGSLKLSCAASGFTFSSYGMSWVRQTPDKRLDWVSIITSGGSYTYYPDSVKGRFTISRDNAKNTLYLQMSSLKSEDTAMYYCARHAEGGGNYDYAMDYWGQGTSVTVSS VL: DIVMTQAAFSNPVTLGTSASISCRSSKSLLHSNGITYLYWYLQKPGQSPQLLIYQMSNLASGVPDRFSSSGSGIDFTLRISRVEAEDVGAYYCAQNLELPFTFGSGTKLEIK	–	–	–	–	–	–	–	–	–	–	–	–	–	–	binds	–	–
